Paper PMC4177983

Biological target: SF162 soluble Env gp140 trimer (HIV-1 isolate SF162 (clade B))
Test: SPR; 1273 RUs of SF162 gp140 trimer amine-coupled on a CM5 chip; dual injection, 3 µM 4E10 Fv flowed 5 minutes before and during 10 nM Fab b12 or 447-52D; HBS-EP+, 25°C

**Q.** How did the response bound at 3 µM 4E10 Fv turn out when 4E10 Fv was run?
**A.** 90 RUs
